Tests used:
hANGPTL3(17-460)-His = target: T1, hANGPTL3(17-460)-His (human, UniProt Q9Y5C1 17-460); test: cell-based or functional assay
T1 sequence: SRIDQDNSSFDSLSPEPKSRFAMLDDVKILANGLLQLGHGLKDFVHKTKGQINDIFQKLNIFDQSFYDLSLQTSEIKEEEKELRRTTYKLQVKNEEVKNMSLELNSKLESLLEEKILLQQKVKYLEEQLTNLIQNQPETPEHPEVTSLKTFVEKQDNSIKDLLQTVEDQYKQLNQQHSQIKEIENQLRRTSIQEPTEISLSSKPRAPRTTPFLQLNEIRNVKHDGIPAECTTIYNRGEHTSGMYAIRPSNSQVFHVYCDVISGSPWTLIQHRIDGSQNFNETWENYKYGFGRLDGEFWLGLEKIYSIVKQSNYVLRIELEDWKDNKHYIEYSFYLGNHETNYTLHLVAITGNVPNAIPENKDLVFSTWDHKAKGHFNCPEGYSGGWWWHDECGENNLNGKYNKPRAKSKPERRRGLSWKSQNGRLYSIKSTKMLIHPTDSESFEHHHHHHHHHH

hANGPTL3(17-170)-His [1] = target: T2, hANGPTL3(17-170)-His (human, UniProt Q9Y5C1 17-170); test: cell-based or functional assay
T2 sequence: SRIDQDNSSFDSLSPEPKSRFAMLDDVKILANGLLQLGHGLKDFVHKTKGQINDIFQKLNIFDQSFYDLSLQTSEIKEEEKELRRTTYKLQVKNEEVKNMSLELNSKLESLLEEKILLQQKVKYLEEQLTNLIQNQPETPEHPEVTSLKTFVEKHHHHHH

MfANGPTL3(17-170)-mmH = target: T3, MfANGPTL3(17-170)-mmH (Macaca fascicularis); test: cell-based or functional assay
T3 chain: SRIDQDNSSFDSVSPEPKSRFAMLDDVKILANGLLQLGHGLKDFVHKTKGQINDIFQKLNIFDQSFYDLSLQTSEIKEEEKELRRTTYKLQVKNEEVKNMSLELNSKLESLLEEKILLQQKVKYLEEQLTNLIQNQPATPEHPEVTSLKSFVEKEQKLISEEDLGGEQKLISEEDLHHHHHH

mANGPTL3(17-240)-His [2] = target: T4, mANGPTL3(17-240)-His (Mus musculus, UniProt Q9R182 17-240); test: cell-based or functional assay
T4 sequence: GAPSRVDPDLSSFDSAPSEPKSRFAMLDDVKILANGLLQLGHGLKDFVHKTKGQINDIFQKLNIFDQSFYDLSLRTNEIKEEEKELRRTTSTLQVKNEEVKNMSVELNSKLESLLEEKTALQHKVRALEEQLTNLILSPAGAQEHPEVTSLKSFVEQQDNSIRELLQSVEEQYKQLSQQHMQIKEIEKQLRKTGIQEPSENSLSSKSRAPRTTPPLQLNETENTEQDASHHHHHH

hANGPTL3(17-170)-His [3] = target: T2, hANGPTL3(17-170)-His; test: SPR Biacore, antigen captured, 25C, pH 7.4, HBS-EP
Description: (§1) All kinetic binding experiments were performed at 25° C. or 37° C. on a BIACORE™ T200 label-free molecular interaction instrument (GE Healthcare) using a CM5 sensor chip. Briefly, an antigen capture surface was generated by covalently coupling either an anti-mouse IgG-specific antibody (anti-mFc; GE Healthcare; catalog #BR-1008-38) or an anti-pentahistidine-specific antibody (Qiagen; catalog #34660) to the surface of a CM5 sensor chip using a standard amine coupling method.

mANGPTL3(17-455)-His = target: T5, mANGPTL3(17-455)-His (Mus musculus, UniProt Q9R182 17-455); test: SPR Biacore, antigen captured, 25C, pH 7.4, HBS-EP
T5 construct: Bought protein (R&D Systems); also called full-length mature ANGPTL3 from Mus musculus with a C-terminal decahistidine tag
T5 sequence: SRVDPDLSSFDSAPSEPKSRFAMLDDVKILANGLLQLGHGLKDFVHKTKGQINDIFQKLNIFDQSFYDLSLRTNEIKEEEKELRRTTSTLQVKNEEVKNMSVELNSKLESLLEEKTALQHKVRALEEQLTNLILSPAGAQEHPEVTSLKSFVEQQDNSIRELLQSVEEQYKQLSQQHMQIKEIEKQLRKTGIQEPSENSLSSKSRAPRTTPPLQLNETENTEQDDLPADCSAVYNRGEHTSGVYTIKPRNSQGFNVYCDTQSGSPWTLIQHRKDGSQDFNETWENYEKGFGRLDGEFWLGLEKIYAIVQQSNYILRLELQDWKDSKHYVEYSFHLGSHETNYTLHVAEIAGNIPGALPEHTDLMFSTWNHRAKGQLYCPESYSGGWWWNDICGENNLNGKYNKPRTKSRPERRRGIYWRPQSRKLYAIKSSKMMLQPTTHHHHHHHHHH
Description: as §1

mANGPTL3(17-240)-His [4] = target: T4, mANGPTL3(17-240)-His; test: SPR Biacore, antigen captured, 25C, pH 7.4, HBS-EP
Description: as §1

rANGPTL3(17-240)-mmH = target: T6, rANGPTL3(17-240)-mmH (Rattus norvegicus); test: SPR Biacore, antigen captured, 25C, pH 7.4, HBS-EP
T6 construct: also called N-terminal coiled-coil domain of ANGPTL3 from Rattus norvegicus with myc-myc-hexahistidine tag
T6 chain: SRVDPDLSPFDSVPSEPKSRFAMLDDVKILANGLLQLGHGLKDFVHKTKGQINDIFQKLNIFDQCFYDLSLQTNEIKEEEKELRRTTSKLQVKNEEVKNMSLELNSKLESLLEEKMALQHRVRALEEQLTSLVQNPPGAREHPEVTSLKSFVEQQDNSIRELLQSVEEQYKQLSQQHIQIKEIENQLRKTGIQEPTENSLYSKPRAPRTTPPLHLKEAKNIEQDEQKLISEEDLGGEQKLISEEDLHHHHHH
Description: as §1

B1: H4H1276S (antibody, IgG4, V domains shown)
VH: EVQLVESGGGVIQPGGSLRLSCAASGFTFDDYAMNWVRQGPGKGLEWVSAISGDGGSTYYADSVKGRFTISRDNSKNSLYLQMNSLRAEDTAFFYCAKDLRNTIFGVVIPDAFDIWGQGTMVTVSS
VL: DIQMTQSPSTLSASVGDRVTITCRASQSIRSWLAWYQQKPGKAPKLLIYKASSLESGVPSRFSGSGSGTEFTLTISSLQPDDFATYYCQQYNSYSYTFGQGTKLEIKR
Which results are given for B1?
IC50 (nM), LPL bioassay, 80 nM constant ANGPTL3 (hANGPTL3(17-460)-His): 9.6 nM; IC50 (nM), LPL bioassay, 100 nM constant ANGPTL3 (hANGPTL3(17-170)-His [1]): 2.9 nM; IC50 (nM), LPL bioassay, 500 nM constant ANGPTL3 (MfANGPTL3(17-170)-mmH): 10 nM; IC50 (nM), LPL bioassay, 500 nM constant ANGPTL3 (mANGPTL3(17-240)-His [2]): 31 nM; Kd (hANGPTL3(17-170)-His [3]): 0.938 nM; koff (hANGPTL3(17-170)-His [3]): 0.000912 s⁻¹; kon (hANGPTL3(17-170)-His [3]): 973000 M⁻¹ s⁻¹; t1/2 (hANGPTL3(17-170)-His [3]): 12.7 min; Kd (mANGPTL3(17-455)-His): 0.268 nM; koff (mANGPTL3(17-455)-His): 0.000346 s⁻¹; kon (mANGPTL3(17-455)-His): 1.29e+06 M⁻¹ s⁻¹; t1/2 (mANGPTL3(17-455)-His): 33.4 min; Kd (mANGPTL3(17-240)-His [4]): 0.458 nM; koff (mANGPTL3(17-240)-His [4]): 0.000307 s⁻¹; kon (mANGPTL3(17-240)-His [4]): 670000 M⁻¹ s⁻¹; t1/2 (mANGPTL3(17-240)-His [4]): 37.6 min; Kd (rANGPTL3(17-240)-mmH): 0.53 nM; koff (rANGPTL3(17-240)-mmH): 0.000718 s⁻¹; kon (rANGPTL3(17-240)-mmH): 1.35e+06 M⁻¹ s⁻¹; t1/2 (rANGPTL3(17-240)-mmH): 16.1 min

— patent US20150197564A1 (Regeneron, published 2015)
